Reference: patent US20130266566A1 (AbbVie / Abbott, published 2013)

T1: mouse PAI-1 (mouse, UniProt P22777 24-401)
T1 sequence: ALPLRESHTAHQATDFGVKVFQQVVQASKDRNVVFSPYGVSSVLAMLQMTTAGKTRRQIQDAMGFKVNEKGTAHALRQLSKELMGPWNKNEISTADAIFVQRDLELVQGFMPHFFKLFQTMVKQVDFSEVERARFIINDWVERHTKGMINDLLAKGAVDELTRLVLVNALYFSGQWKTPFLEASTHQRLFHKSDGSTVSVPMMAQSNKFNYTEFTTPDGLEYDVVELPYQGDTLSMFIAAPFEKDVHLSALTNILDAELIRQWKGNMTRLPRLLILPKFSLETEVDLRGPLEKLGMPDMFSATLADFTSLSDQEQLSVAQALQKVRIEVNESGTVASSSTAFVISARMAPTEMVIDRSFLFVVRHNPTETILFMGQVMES

T2: rat PAI-1 (rat, UniProt P20961 24-402)
T2 sequence: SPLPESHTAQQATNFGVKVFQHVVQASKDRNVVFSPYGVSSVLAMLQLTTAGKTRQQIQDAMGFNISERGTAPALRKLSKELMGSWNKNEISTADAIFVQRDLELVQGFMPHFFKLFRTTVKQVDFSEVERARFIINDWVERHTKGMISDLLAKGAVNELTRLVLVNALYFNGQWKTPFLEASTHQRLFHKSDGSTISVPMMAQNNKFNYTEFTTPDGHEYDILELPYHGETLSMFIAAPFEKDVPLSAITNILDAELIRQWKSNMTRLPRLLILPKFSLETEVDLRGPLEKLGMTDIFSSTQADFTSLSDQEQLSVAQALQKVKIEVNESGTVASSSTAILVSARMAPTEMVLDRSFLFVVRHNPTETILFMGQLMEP


Experiments:
Assay in all cases: cell-based or functional assay
mouse PAI-1 [1] = target: T1, mouse PAI-1
rat PAI-1 [2] = target: T2, rat PAI-1
cynomolgus PAI-1 = cynomolgus PAI-1 (cynomolgus, UniProt P05121 24-402 (human entry), limits assumed)
[3] = target: T3, active human PAI-1, recombinant, wild-type, non-glycosylated (E. coli) (human, UniProt P05121 24-402)
mouse PAI-1 [4] = target: T1, mouse PAI-1; remark: listed apart in the source
[5] = target: T3, active human PAI-1, recombinant, …; remark: listed apart in the source
rat PAI-1 [6] = target: T2, rat PAI-1; remark: listed apart in the source

Row | Binder | Chromogenic (IC50 in nM) mouse (mouse PAI-1 [1]) [nM] | Chromogenic IC50 ratio mouse/human (mouse PAI-1 [1]) [fold] | Chromogenic (IC50 in nM) rat (rat PAI-1 [2]) [nM] | Chromogenic IC50 ratio rat/human (rat PAI-1 [2]) [fold] | Chromogenic (IC50 in nM) cyno (cynomolgus PAI-1) [nM] | Chromogenic IC50 ratio cyno/human (cynomolgus PAI-1) [fold] | Chromogenic (IC50 in nM) human [3] [nM] | HT-1080 Exo PAI-1 (IC50 in nM) mouse (mouse PAI-1 [4]) [nM] | HT-1080 Exo PAI-1 (IC50 in nM) human [5] [nM] | HT-1080 Exo PAI-1 (IC50 in nM) rat (rat PAI-1 [6]) [nM]
1 | Antibody 01 scFv (scFv) QVQLVQSGAEVKKPGSSVKVSCKASGGTFSSYAISWVRQAPGQGLEWMGGIIPIFGTANYAQKFQGRVTITADESTSTAYMELSSLRSEDTAVYYCAREKRQWLEGHFDYWGRGTLVTVSSDIQMTQSPSTLSASVGDRVTITCRASEGIYRSLAWYQQKPGKAPKLLIYKASSLASGVPSRFSGSGSGTEFTLTISSLQPDDFATYYCQQYSNYPLTFGGGTKVEIK | 28.3 | 8.2 | 208 | 60.5 | 1.2 | 0.4 | 3.4 | 34.5 | 23.9 | –
2 | Antibody 02 scFv (scFv) QVQLVQSGAEVKKPGSSVKVSCKASGGTFSSYAISWVRQAPGQGLEWMGGIIPTFGTANYAQKFQGRVTITADESTSTAYMELSSLRSEDTAVYYCAREKRQWLEGHFDYWGRGTLVTVSSDIQMTQSPSTLSASVGDRVTITCRASEGIYHSLAWYQQKPGKAPKLLIYKASSLASGVPSRFSGSGSGTEFTLTISSLQPDDFATYYCQQYSDYPLTFGGGTKVEIK | 553 | 929 | 530 | 891 | 1.1 | 1.8 | 0.6 | – | – | –
3 | Antibody 04 scFv (scFv) QVRLQQSGAEVKKPGSSVKVSCKASGGTFSSYAISWVRQAPGQGLEWMGGIIPTFGTANYAQKFRGRVTITANESTSTAYMELSGLRSEDTAVYYCAREKRQWLEGRFDYWGRGTLVTVSSDIQMTQSPSFLSASIGDRITITCRASEGIYHSLAWYQQKPGKAPKLLIHRATSLASGTPSRFGGSGSGTDFALTISSLQPDDFATYYCQQYSNYPLTFGGGTKLEIK | 264 | 39.9 | 340 | 51.4 | 2.1 | 0.3 | 6.6 | – | – | –
4 | Antibody 14 scFv (scFv) QVQLQQSGAEVKKPGSSVKVSCKASGGTFSSYAISWVRQAPGQGLEWMGGIIPTFGTANYAQKFQGRVTITADESTSTAYMELSGLRSEDTAVYYCAREKRQWLEGHFDYWGRGTLVTVSSDIQMTQSPSFLSASIGDRVTITCRASEGIYHNLAWYQQKPGKAPKLLIYRASSLASGAPSRFSGSGSGTDFTFTISSLQPDDFATYYCQQYSNYPLTFGGGTKLEIK | – | – | 23.1 | – | 0.8 | – | – | 22 | 28 | 52
5 | Antibody 05 scFv (scFv) QVQLQQSGAEVKKPGSSVKVSCKASGGTFSSYAISWVRQAPGQGLEWMGGIIPTFSTANYAQKFRGRVTITADESTSTAYMELSGLRSEDTAVYYCAREKRQWLEGHFDYWGRGTPVTVSSDIQMTQSPSFLSASIGDRVTITCRASEGIYHQLAWYQQKPGKAPKLLIYRASSLASGAPSRFSGSGSGTDFTLTISSLQPDDFATYYCQQYSNYPLTFGGGTKLEIK | 718 | 144 | 860 | 172 | 0.5 | 0.1 | 5 | – | – | –
6 | Antibody 03 scFv (scFv) QVQLQQSGAEVKKPGSSVKVSCKASGGTFSSYAISWVRQAPGQGLEWMGGIIPTFGTANYAQKFQGRVTITADESTSTAYMELSGLRSEDTAVYYCAREKRQWLEGHFDYWGRGTPVTVSSDIQMTQSPSFLSASIGDRVTITCRASEGIYRSLAWYQQKPGKAPKLLIYKASSLASGAPSRFSGSGSGTDFTLTISGLQPDDFATYYCQQYSNYPLTFGGGTKLEIK | 54.9 | 30.5 | 297 | 165 | 0.1 | 0.1 | 1.8 | – | – | –
7 | Antibody 09 scFv (scFv) QVQLQQSGAEVKKPGSSVKVSCKASGGTFSSYAISWVRQAPGQGLEWMGGIIPAFDTANYAQKFQGRVTITADESTSTAYMELSGLRSEDTAVYYCAREKRQWLEGHFDYWGRGTPVTVSSDIQMTQSPSFLSASIGDRVTITCQASEGIYHNLAWYQQKPGKAPKLLIYRASSLASGAPSRFSGSGSGTDFTLTISSLQPDDFATYYCQQYSNYPLTFGGGTKLEIK | – | – | 29.7 | – | 0.7 | – | – | 21 | 23 | 52.7
8 | Antibody 10 scFv (scFv) QVQLQQSGAEVKKPGSSVKVSCKASGGTFSSYAISWVRQAPGQGLEWMGGIIPTFGTANYAQKFQGRVTITADESTSTAYMELSSLRSEDTAVYYCAREKRQWLEGHFDYWGRGTPVTVSSDIQMTQSPSFLSASIGDRVAITCRASEGIYHSLAWYQQKPGKAPKLLIYRASSLASGAPSRFSGSGSGTDFTLTISSLQPDDFATYYCQQYSNYPLTFGGGTRLEIK | 334 | 149 | 296 | 132 | 0.5 | 0.2 | 2.2 | – | – | –
9 | Antibody 06 scFv (scFv) QVQLQQSGAEVKKPGSSVKVSCKASGGTFSSYAISWVRQAPGQGLEWMGGIIPTFGTANYAQKFQGRVTITADESTSTAYMELSGLRSEDTAVYYCAREKRQWLEGHFDYWGRGTPVTVSSDIQMTQSPSFLSASIGDRVTITCRASEGIYHELAWYQQKPGKAPKLLIYRASSLASGAPSRFSGSGSGTDFTLTISSLQPDDFATYYCQQYSNYPLTFGRGTKLEIK | 48.2 | 0.6 | 37.1 | 0.5 | 31.6 | 0.4 | 74.6 | – | – | –
10 | Antibody 07 scFv (scFv) QVQLQQSGAEVKKPGSSVKVSCKASGGTFSSYAISWVRQAPGQGLEWVGGIIPTFGTANYAQKFQGRVTITADESTSTAYMELSGLRSEDTAVYYCAREKRQWLEGHFDYWGRGTPVTVSSDIQMAQSPSFLSASIGDRVTITCRASEGIYHELAWYQQKPGKAPKLLIYRASSLASGAPSRFSGSGSGTDFTLTISSLQPDDFATYYCQQYSNYPLTFGGGTKLEIK | 143 | 0.8 | 91 | 0.5 | 117 | 0.6 | 187 | – | – | –
11 | Antibody 27 scFv (scFv) QVQLQQSGAEVKKPGSSVKVSCKASGGAFSSYAISWVRQAPGQGLEWMGGIIPTFGTANYAQKFQGRVTITADESTSTAYMELSGLRSEDTAVYYCAREKRQWLEGHFDYWGRGTPVTVSSDIQMTQSPSFLSASIGDRVTITCRASEGIYHNLAWYQQKPGKAPKLLIYRASSLASGAPSRFSGSGSGTDFTLTISSLQPDDFATYYCQQYSNYPLTFGGGTKLEIK | – | – | 49.8 | – | 2.2 | – | – | 16.4 | 18.8 | 33.8
12 | Antibody 26 scFv (scFv) QVQLQQSGAEVKKPGTSVKVSCKASGGTFSSYAISWVRQAPGQGLEWMGGIIPIFGTANYAQKFQGRVTITADESTSTAYMELSSLRSEDTAVYYCAREKRQWLEGHFDYWGRGTPVTVSSDIQMTQSPSFLSASIGDRVTITCRASEGIYHTLAWYQQKPGKAPKLLIYRASSLASGAPSRFSGSGSGTDFTLTISSLQPDDFATYYCQQYSNYPLTFGGGTKLEIK | 211 | 52.9 | 245 | 61.4 | 1.2 | 0.3 | 4 | – | – | –
